Patent US9192648

Target: complement C5
Experiment: assay for the IC50 not described; told with the direct binding to C5 (FIG. 4C)

“EV576 protein (from UniProt Q5YD59 19-168)” was tested, and the IC50 was 20 µg/mL.
